Laboratory results as given in publication PMC13035910, “Dbf4-dependent kinase finetunes Ino80 function at chromosome replication origins” (Nature Communications, 2026).

B1: Ino80 subunit of the INO80 complex (natural protein, UniProt P53115 1-1489, looked up)
chain: MSLAVLLNKEDKDISDFSKTTAGKSAKKNSRERVADVAPTRVLDKKQAYLSQLNSEFNRIKRRDSIEQLYQDWKFINLQEFELISEWNQQSKDWQFDNTNDSQDLHFKKLYRDMSMINKEWAEYQSFKNANLSDIINEKDADEDEEDDEDELEDGEEDMEEDEASTGRHTNGKSMRGNGIQKSRKKDAAAAAAIGKAIKDDQTHADTVVTVNGDENEDGNNGEDEDNDNDNENNNDNDNDNENENDNDSDNDDEEENGEEDEEEEEIEDLDEEDFAAFEEQDDNDDEDFNPDVEKRRKRSSSSSSSTKLSMNSLSLITSKKINKNITINSDRPKIVRELIKMCNKNKHQKIKKRRFTNCIVTDYNPIDSKLNIKITLKQYHVKRLKKLINDAKREREREEALKNNVGLDGNDLDNDEDGSESHKRRKLNNNTANGADDANKRKFNTRHGLPTYGMKMNAKEARAIQRHYDNTYTTIWKDMARKDSTKMSRLVQQIQSIRSTNFRKTSSLCAREAKKWQSKNFKQIKDFQTRARRGIREMSNFWKKNEREERDLKKKIEKEAMEQAKKEEEEKESKRQAKKLNFLLTQTELYSHFIGRKIKTNELEGNNVSSNDSESQKNIDISALAPNKNDFHAIDFDNENDEQLRLRAAENASNALAETRAKAKQFDDHANAHEEEEEEDELNFQNPTSLGEITIEQPKILACTLKEYQLKGLNWLANLYDQGINGILADEMGLGKTVQSISVLAHLAENHNIWGPFLVVTPASTLHNWVNEISKFLPQFKILPYWGNANDRKVLRKFWDRKNLRYNKNAPFHVMVTSYQMVVTDANYLQKMKWQYMILDEAQAIKSSQSSRWKNLLSFHCRNRLLLTGTPIQNSMQELWALLHFIMPSLFDSHDEFNEWFSKDIESHAEANTKLNQQQLRRLHMILKPFMLRRVKKNVQSELGDKIEIDVLCDLTQRQAKLYQVLKSQISTNYDAIENAATNDSTSNSASNSGSDQNLINAVMQFRKVCNHPDLFERADVDSPFSFTTFGKTTSMLTASVANNNSSVISNSNMNLSSMSSNNISNGKFTDLIYSSRNPIKYSLPRLIYEDLILPNYNNDVDIANKLKNVKFNIFNPSTNYELCLFLSKLTGEPSLNEFFRVSTTPLLKRVIERTNGPKNTDSLSFKTITQELLEVTRNAPSEGVMASLLNVEKHAYEREYLNCIQRGYHPNVSAPPVTIEVLGSSHVTNSINNELFDPLISQALSDIPAITQYNMHVKKGIPVEDFPKTGLFPEPLNKNFSSNISMPSMDRFITESAKLRKLDELLVKLKSEGHRVLIYFQMTKMMDLMEEYLTYRQYNHIRLDGSSKLEDRRDLVHDWQTNPEIFVFLLSTRAGGLGINLTAADTVIFYDSDWNPTIDSQAMDRAHRLGQTRQVTVYRLLVRGTIEERMRDRAKQKEQVQQVVMEGKTQEKNIKTIEVGENDSEVTREGSKSISQDGIKEAASALA
notes: Ino80, motor ATPase and scaffold subunit of the INO80 complex, budding yeast; endogenous protein with chromosomally inserted tag; Stood in the cross-linking assay as part of the whole purified complex; also called Ino80 scaffold; motor ATPase Ino80; source: endogenously expressed in S. cerevisiae (S288c background; wild-type strain and yPB5), purified within the INO80 or INO80-AA complex …
B2: N-module of the INO80 complex (Nhp10/Ies1/Ies3/Ies5) (complex)
chain 1: MSVEEKKRRLEELKDQNVVLGLAIQRSRLSVKRLKLEYGVLLERLESRIELDPELNCEDPLPTLASFKQELLTKPFRKSKTKRHKVKERDPNMPKRPTNAYLLYCEMNKERIRQNGSLDVTRDLAEGWKNLNEQDRKPYYKLYSEDRERYQMEMEIYNKKISNIDADDDKEENEQKIKNNEEGSSTKVADSKGGEDGSLVSSN
chain 2: MGKRVYDPIHDTFQLREDNSDETKADSPMQSVKSGSQEEASPSSIQSETETVTTKSIPVIHEIEIDDKNDDDSTQSEEENTNILLNFEPSTVPEATGASTATGPVTTNTVRRKPKESNASKYNRHLKKPDGEPFNRKDIQFSFMQELLMDKRQIFTNVLKPLYKNSIVPINIDGDKLSINVTDKEYDARTFVFNDKLTFAQLYVLTIATSIKCSKILRDKLLLDQQVAFSTCVLALLVNIGRLNTTINFYLEMTSQLRTFHSVPVLQLHANDPKLLQDTPRLKSILKNLPWGNEQLSLMETYKKVDQNDGEVDTVNKFNIINMLFSICDNSGLIDKRFLSKYVEVESKAQEQDMVDEQNEVKETEAENEKQESKAAYATTLFDILDYSKYEPKDRSNILIWLLYIHLETNLSQEEVEESVRFFNGLEDGAPAGKFILRCTERSYDTDPEDELEFGANQRIKRREFMSKMEEGRKRERTNVTEVKKPSIGGDKSEEDGEGEDDKSEETVEETRSLLTPTPILESSSPMTLNRKKVTPQLPKVTPAAPTETEEEITSAAIIDKNDLNLTPLKKYNSSATVNKVDKLISLDLNKHVSENGKTQEEFLADLKKSQVPNRLKRRDIGLIKIFNEFEDIPVASVLGIRGKKRKKFKDNLLGFETDFMKNLGASKKVLLNKIERAEIDDEEATAMFKLE
chain 3: MKFEDLLATNKQVQFAHAATQHYKSVKTPDFLEKDPHHKKFHNADGLNQQGSSTPSTATDANAASTASTHTNTTTFKRHIVAVDDISKMNYEMIKNSPGNVITNANQDEIDISTLKTRLYKDNLYAMNDNFLQAVNDQIVTLNAAEQDQETEDPDLSDDEKIDILTKIQENLLEEYQKLSQKERKWFILKELLLDANVELDLFSNRGRKASHPIAFGAVAIPTNVNANSLAFNRTKRRKINKNGLLENIL
chain 4: MPSKDPESVIDKEIRKISARNDELIKQDGTLKREYTTLLRKVSSVITVLNSIDDADTGSAETELPRLISQATVEKVPELKWYNDQISLITEKLEDDEDIEVPEELMDAYTLYKETPLLYNDTHTP
notes: Nhp10, N-module subunit of INO80, budding yeast; endogenous protein; Ies1, N-module subunit of INO80, budding yeast; Ies3, N-module subunit of INO80, budding yeast; Ies5, N-module subunit of INO80, budding yeast; Stood in the cross-linking assay as part of the whole purified complex; also called NHP10 module; N-module subunits; source: endogenously expressed in S. cerevisiae (S288c background; …)
B3: the rest of the N-module of the INO80 complex (Nhp10/Ies3/Ies5) (complex)
chain 1: B2 chain 1
chain 2: B2 chain 3
chain 3: B2 chain 4
notes: Nhp10, N-module subunit of INO80, budding yeast; endogenous protein; Ies3, N-module subunit of INO80, budding yeast; Ies5, N-module subunit of INO80, budding yeast; source: endogenously expressed in S. cerevisiae (S288c background; wild-type strain and yPB5), purified within the INO80 or INO80-AA complex (anti-FLAG M2 resin, Mono Q); copies: + +

Key:
Experiment in all cases: cross-linking; DSBU cross-linking with mass spectrometry of the purified wild-type INO80 complex; 58 uM DSBU, 20 min, 30 C, 1200 rpm; 25 mM HEPES-NaOH pH 7.2, 300 mM NaCl, 5% glycerol, 1 mM DTT, 4 mM MgCl2; repeated with an independent batch
Settings in all cases: both partners purified
[1] = target: T1, A-module of the INO80 complex (Arp4/Arp8/Act1(actin)/Taf14/Ies4) (S. cerevisiae (endogenous, S288c …, UniProt P80428 1-489; Q12386 1-881; P60010 1-375; P35189 1-244; Q08561 1-116)
T1 construct: Arp4, A-module subunit of INO80, budding yeast; endogenous protein; Arp8, A-module subunit of INO80, budding yeast; endogenous wild-type protein; Act1 (actin), A-module subunit of INO80, budding yeast; Taf14, A-module subunit of INO80, budding yeast; Ies4, A-module subunit of INO80, budding yeast; Stood in the cross-linking assay as part of the whole purified wild-type complex; also called ARP8 …

[2] = target: B1
[3] = target: T2, Ies1 subunit of the INO80 complex (S. cerevisiae (endogenous, S288c …, UniProt P43579 1-692))
T2 construct: Ies1, N-module subunit of INO80, budding yeast; endogenous protein; Stood in the cross-linking assay as part of the whole purified complex; source: endogenously expressed in S. cerevisiae (S288c background; wild-type strain and yPB5), purified within the INO80 or INO80-AA complex (anti-FLAG M2 resin, Mono Q)
T2 sequence (looked up): B2 chain 2

## B1
[1]
  binding result: binds

## B2
[2]
  binding result: binds

## B3
[3]
  binding result: binds
